This passage reports Km results from article PMC3605045, “GH1-family 6-P-β-glucosidases from human microbiome lactic acid bacteria” (Acta Crystallographica Section D: Biological Crystallography, 2013).

Substrate in the series: O=P(O)(O)OC[C@H]1O[C@@H](Oc2ccccc2CO)[C@H](O)[C@@H](O)[C@@H]1O
The series can be described thus: purified protein. Format: biochemical, Streptococcus mutans. The settings on record: 0.1 M HEPES-NaOH pH 8.0, 2 mM NADP+, 298 K, SeMet-labelled enzyme 0.02 µM, substrate 10-2000 µM, 25.0 °C.

B1: SmBgl (Streptococcus mutans UA159) (protein)
chain: MSKLPENFLWGGAVAAHQLEGGWQEGGKGISVADVMTAGRHGVAREITAGVLEGKYYPNHEAIDFYHHYKEDVKLFAEMGFKCFRTSIAWTRIFPKGDEAEPNEAGLQFYDDLFDECLKYGIEPVVTLSHFELPYHLVTEYGGFTNRKVIDFFVHFAEVCFRRYKDKVKYWMTFNEINNQANYQEDFAPFTNSGIVYKEGDDREAIMYQAAHYELVASARAVKIGHAINPNLNIGCMVAMCPIYPATCNPKDILMAQKAMQKRYYFADVHVHGFYPEHIFKYWERKAIKVDFTERDKKDLFEGTVDYIGFSYYMSFVIDAHRENNPYYDYLETEDLVKNPYVKASDWDWQIDPQGLRYALNWFTDMYHLPLFIVENGFGAIDQVEADGMVHDDYRIDYLGAHIKEMIKAVDEDGVELMGYTPWGCIDLVSAGTGEMRKRYGFIYVDKDDEGKGTLKRSPKLSFNWYKEVIASNGDDI
notes: full length, 477 residues, ~55 kDa, homodimer; His6 cut by TEV, SNA- left at N-terminus; E. coli BL21 (DE3) Magic, pMCSG7; SeMet-labelled protein in kinetic assays
B1: the Km is 1020 ± 70 µM.

Broadly, the Km is the substrate concentration at which the rate is half of its maximum.
